Biological target: T1, Recombinant His-tagged NPM/B23 (UniProt P06748 1-294)
T1 construct: NPM/B23 (Nucleophosmin), bacterially produced, unphosphorylated; also called His-NPM/B23; His-tagged NPM/B23 WT; source: E. coli BL21, purified (Ni-NTA agarose)
Experiment: pull-down; in vitro binding assay: Flag-Plk2 fragments immunoprecipitated from 293T cells, bound to Protein G sepharose, incubated with 15 µg recombinant His-NPM/B23 in PBS with 0.05% NP-40 for 2 h at 4°C; Western blot
Conditions: both partners purified

T1 sequence (P06748 whole entry): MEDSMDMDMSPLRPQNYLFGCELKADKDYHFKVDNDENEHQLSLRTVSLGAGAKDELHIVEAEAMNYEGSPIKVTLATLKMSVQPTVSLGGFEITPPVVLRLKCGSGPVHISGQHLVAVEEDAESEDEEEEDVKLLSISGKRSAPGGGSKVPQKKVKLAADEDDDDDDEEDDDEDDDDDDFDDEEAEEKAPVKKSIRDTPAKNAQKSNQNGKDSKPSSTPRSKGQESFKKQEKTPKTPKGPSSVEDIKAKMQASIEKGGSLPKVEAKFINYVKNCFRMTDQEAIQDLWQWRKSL

binding result: binds
B1: Flag-Plk2-(aa 590–685) (domain or fragment, UniProt Q9NYY3 590-685, looked up)
chain: PSVTDIRRPRLYLLQWLKSDKALMMLFNDGTFQVNFYHDHTKIIICSQNEEYLLTYINEDRISTTFRLTTLLMSGCSSELKNRMEYALNMLLQRCN
notes: also called second Polo-box of Plk2; source: 293T, transfected, immunoprecipitated with anti-Flag antibodies

From PMC2844433, “Polo-Like Kinase 2-Dependent Phosphorylation of NPM/B23 on Serine 4 Triggers Centriole Duplication” (PLoS ONE, 2010)
